Measurements as given in patent publication US6280972.

Target: methanol dehydrogenase (MDH) of Bacillus brevis S1 strain (NCIMB No. 12524) (Bacillus brevis S1 strain)

methanol dehydrogenase activator YqkG of Bacillus subtilis (product of the yqkG / amd gene)
Activation ratio (%) of methanol dehydrogenase activity (Δ OD 340 nm/min, reduction of NAD+): 250%
